# Key:
# [1] = test system: HEK293T and monoclonal lineage tracing cell line (iPE2(+) LT(+)); experiment: Cell doubling time with or without Doxycycline; assay type: cell-based
# Description: (A). Cell doubling times measured for HEK293T and the monoclonal lineage tracing cell line (iPE2(+) LT(+)), with or without Doxycycline (Dox). […] P values were obtained using the two-tailed Student's t-test with Bonferroni correction: only *P<0.05 are shown. The center and error bars are mean and standard deviations, respectively, from n=3 independent experiments.
# [2] = test system: PE2(+) 3N-TAPE-1-pegRNA(+) HEK293T; experiment: Editing and recovery of 12× and 20×TAPE-1 arrays, 40 days, PacBio sequencing; assay type: cell-based; conditions: 40 days culture
# Description: To evaluate the extent to which such issues might be limiting in practice, a synthetic minisatellite in the form of 12 or 20 repeats of the 14-bp TAPE-1 monomer was generated. 12×TAPE-1 was synthesised as single-stranded DNA (IDT) and 20×TAPE-1 as a plasmid (GenScript). PCR amplicons of each array were cloned into the piggyBAC vector via Gibson assembly. Of note, cloned constructs were used “as is”, even though it is possible that some degree of variation in repeat number was already present (FIG. 11A-11B). […] PCR amplification of TAPE-1 was followed by standard library construction and sequencing on the Pacific Bioscience Sequel platform to obtain circular consensus sequencing (CCS) reads. […]
# CCS reads were grouped within each replicate based on a degenerate 8-bp barcode (TargetBC), as these presumably derived from the same integration. On average, each TargetBC group had 3.1±3.4 and 3.8±5.7 reads for ˜ 12×TAPE-1 and ˜20×TAPE-1, respectively.
# For long-read amplicon sequencing library preparation, a two-step PCR protocol was used: the first PCR reaction (KAPA Robust polymerase) included 1.5 uL of cell lysate, 0.04 to 0.4 uM of forward and reverse primers in a final reaction volume of 25 μL. […] After the first PCR step, products were assessed on 6% TBE-gel and purified using 0.6×AMPure (Beckman Coulter) and added to the second PCR reaction that appended PacBio sample indexes. […]
Molecule,Effect on cell doubling time [1],Edits per array [2],Repeats of TAPE-1 monomers recovered (average) [2]
"C[C@H]1c2cccc(O)c2C(=O)C2=C(O)[C@]3(O)C(=O)C(C(N)=O)=C(O)[C@@H](N(C)C)[C@@H]3[C@@H](O)[C@@H]21 [Dox, Doxycycline hyclate]",lengthened the cell doubling time,–,–
"12×TAPE-1: 12 repeats of the 14-bp TAPE-1 monomer, SEQ ID NO: 118 (nucleic acid) DNA: CACCNNNNNNNNGGATGATGGTGAGCACGTGATGGTGAGCACGTGATGGTGAGCACGTGATGGTGAGCACGTGATGGTGAGCACGTGATGGTGAGCACGTGATGGTGAGCACGTGATGGTGAGCACGTGATGGTGAGCACGTGATGGTGAGCACGTGATGGTGAGCACGTGATGGTGAGCACGTGATGGTGAGCGCTTTAAGGC",–,4.5±1.3 edits,8.4±3.3 repeats
